# Assay results reported in patent US20230002757A1 (ZHEJIANG NANOMAB TECHNOLOGY CENTER, published 2023).
# Experiments:
# [1] = target: T1, PD-1 protein (human, UniProt Q15116 25-167, limits assumed); experiment: blocking ELISA, PD-1 coated, competitor biotin PD-L1
# T1 construct: also called human PD-1
# Protocol: Each well of 96-well microtiter plates is coated with 2 μg/ml of PD-1 protein in PBS and blocked with 1% BSA. […]
# The intensity of the developed color is measured at 450 nm. Wells with no added PD-1 and no added VHH-FC are negative and positive controls, respectively.
# [2] = target: T1, PD-1 protein; experiment: ELISA, PD-1 coated
# Protocol: 2 μg/ml of PD-1 protein is coated on 96-well plates overnight for ELISA binding assay. Recombinant VHH-FC proteins are added to the wells and allowed to stand for a period of time, then 1 μg/ml of HRP-conjugated anti-FC antibody is added as detection antibody and the assay reagents are added. The absorbance is read at 450 nm. Binding of nivolumab serves as a positive control and plates coated with BSA are used as the negative control group.
# T1 sequence (Q15116 25-167 limits assumed): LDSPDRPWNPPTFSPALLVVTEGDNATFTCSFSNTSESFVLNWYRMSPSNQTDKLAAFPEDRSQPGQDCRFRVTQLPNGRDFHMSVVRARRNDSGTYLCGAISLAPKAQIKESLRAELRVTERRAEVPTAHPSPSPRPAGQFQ
Binder,"OD450 of PD-L1 bound, antibody at 0.15 µg/mL [1]","OD450 of PD-L1 bound, antibody at 0.61 µg/mL [1]","OD450 of PD-L1 bound, antibody at 2.42 µg/mL [1]","OD450 of PD-L1 bound, antibody at 9.75 µg/mL [1]",OD450 at 0.002 µg/mL [2],OD450 at 0.02 µg/mL [2],OD450 at 0.2 µg/mL [2],OD450 at 2 µg/mL [2]
"504#SS14 (Fc fusion, not shown: a dimerising Fc or GST; small tags and cut ends, VHH-FC construct from HEK293 cells) VHH: QVQLVESGGGLVQPGGSLRLSCVASGFTFSSYWMYWVRQAPGKGLEWVSAIDTTGGSTAYTHSVKGRFTISRDNARNTLYLQMNNLKSEDTAVYYCANSTYFNDDPEYDRWGQGTQVTVSS",3.22 OD450,3.25 OD450,3.27 OD450,3.36 OD450,0.04 OD450,0.03 OD450,0.03 OD450,0.04 OD450
"504#SS5 (Fc fusion, VHH-FC construct from HEK293 cells; not shown: The (G4S)3 linker leading to it is left out with it) VHH: QVQLVESGGGSAQAGGSLRLSCTASGRPFSIYDMGWFRQAPGKERESVAVINLSRGNTYYADSVKGRFTISLDSAKNTVYLQMNSLKPEDTAVYSCGVDRRQYGLGIPPLADYWGQGTQVTVSS",3.18 OD450,1.65 OD450,0.14 OD450,0.08 OD450,1.56 OD450,2.79 OD450,3.18 OD450,3.06 OD450
"504#SS7 (Fc fusion, VHH-FC construct from HEK293 cells; not shown: The (G4S)3 linker leading to it is left out with it) VHH: QVQLVESGGGLVQAGGSLTLSCAASGRTFNSYAMGWFRQAPGKEREFVAAISQNGGSQGYAEAVKDRFTISRDNTNKVVALQMNSLKPEDTAAYYCAADGDASDRSYAPPRDYKYEYWGQGTQVTVSS",3.32 OD450,3.35 OD450,3.31 OD450,3.26 OD450,0.03 OD450,0.05 OD450,0.24 OD450,1.07 OD450
"504#SS2 (Fc fusion, VHH-FC construct from HEK293 cells; not shown: The (G4S)3 linker leading to it is left out with it) VHH: EVQVVESGGGLVKTGDSLRLSCAASGGTISGYEMGWFRQAPGKEREFVAGISRNGRSTGYSDSAKDRFTISRDNAKNTVYLQMNSLKPEDTAVYYCAAGLKADYGDSYVDTSTRNYNYWGQGTQVTVSS",3.34 OD450,3.23 OD450,3.31 OD450,3.31 OD450,0.59 OD450,2.25 OD450,3.12 OD450,3.1 OD450
"504#SS15 (Fc fusion, not shown: a dimerising Fc or GST; small tags and cut ends, VHH-FC construct from HEK293 cells) VHH: QVQLVESGGGLVQPGGSLRLSCAASGFTFSNYAMTWYRQAPGKERELVAAISSAGYTTTYAGSVKGRFTISRDNAKNTVYLQMNSLNPEDTAVYYCNAGRLSYGGSYYPNDDYWGQGTQVTVSS",3.53 OD450,3.69 OD450,3.57 OD450,3.68 OD450,0.04 OD450,0.04 OD450,0.04 OD450,0.05 OD450
"504#SS1 (Fc fusion, VHH-FC construct from HEK293 cells; not shown: The (G4S)3 linker leading to it is left out with it) VHH: QVQLVESGGGLVQAGGSLRLSCAASGLTFSDFAMGWFRQAPGKEREFVAAISWSGGQTYNVESAKGRFTISRDNAKNTVYLQMNKLKPDDTAVYYCAASTMVVTTVAADYKYWGQGTQVTVSS",3.19 OD450,3.15 OD450,3.26 OD450,3.17 OD450,0.03 OD450,0.03 OD450,0.03 OD450,0.04 OD450

# Continued, values first:
"OD450 of PD-L1 bound, antibody at 0.15 µg/mL [1]","OD450 of PD-L1 bound, antibody at 0.61 µg/mL [1]","OD450 of PD-L1 bound, antibody at 2.42 µg/mL [1]","OD450 of PD-L1 bound, antibody at 9.75 µg/mL [1]",OD450 at 0.002 µg/mL [2],OD450 at 0.02 µg/mL [2],OD450 at 0.2 µg/mL [2],OD450 at 2 µg/mL [2],Binder
3.33 OD450,3.26 OD450,3.29 OD450,3.28 OD450,0.04 OD450,0.03 OD450,0.03 OD450,0.04 OD450,"504#SS30 (Fc fusion, not shown: a dimerising Fc or GST; small tags and cut ends, VHH-FC construct from HEK293 cells) VHH: EVQLVETGGGLVQAGGSLRLACEVSGRTFSSYAMGWFRQAPGREREFVASIRVSGGITDYADSVKGRFTISRDNAKDTVYLQMINLKPEDTAVYYCNADISRYRFSRGDYWGKGTLVTVSS"
3.32 OD450,3.3 OD450,3.36 OD450,3.17 OD450,0.03 OD450,0.03 OD450,0.03 OD450,0.04 OD450,"504#SS25 (Fc fusion, not shown: a dimerising Fc or GST; small tags and cut ends, VHH-FC construct from HEK293 cells) VHH: QVQLVETGGGLVQAGGSLRLSCAASGDTIFISSMAWYRQAPGKERELVASIDSDDIIYYAATVKGRFTISRDNDKPTMYLQMDTLQPEDTAVYYCRVESQDYYFDYDRDSWGQGTQVTVSS"
3.47 OD450,3.34 OD450,3.32 OD450,3.28 OD450,0.04 OD450,0.03 OD450,0.03 OD450,0.04 OD450,"504#SS22 (Fc fusion, not shown: a dimerising Fc or GST; small tags and cut ends, VHH-FC construct from HEK293 cells) VHH: QVQLVETGGGLVQAGGSLRLSCAASGRTFSSYAMGWFRQAPGKERDFVAGISGSGGNTPYAESVKGRFTISRDNAKNTVALQMNSLKPEDTAVYYCAAKFTSSSFYYRSPREYSSWGQGTQVTVSS"
3.47 OD450,3.31 OD450,3.29 OD450,3.28 OD450,0.19 OD450,1.22 OD450,2.91 OD450,3 OD450,"504#SS23 (Fc fusion, not shown: a dimerising Fc or GST; small tags and cut ends, VHH-FC construct from HEK293 cells) VHH: QVQLVESGGGLVQPGGSLRLSCAASGFTFSSYVMSWVRQAPGKGLEWVSAINSGGSSSSYPESVKDRFTVSRDNAKNTLYLQMNSLKPEDTAVYFCAAKNVPGFYYSDYANHEYDYWGQGTQVTVSS"
3.32 OD450,3.28 OD450,3.31 OD450,3.27 OD450,0.14 OD450,0.93 OD450,2.77 OD450,3.06 OD450,"504#SS28 (Fc fusion, not shown: a dimerising Fc or GST; small tags and cut ends, VHH-FC construct from HEK293 cells) VHH: QVQLVESGGGSVQPGGSLRLSCAVSGFTLDYYDIGWFRQAPGKERDWISCISSSDGSQYYADSVKDRFFISRDNAKNTVYLQMNSLEPGDTAVYYCAADFDTYRFCSGFGPDAYSSWGQGTQVIVSS"
3.48 OD450,3.35 OD450,3.22 OD450,3.26 OD450,0.03 OD450,0.04 OD450,0.03 OD450,0.05 OD450,"504#SS16 (Fc fusion, not shown: a dimerising Fc or GST; small tags and cut ends, VHH-FC construct from HEK293 cells) VHH: EVQVVESGGGLVQAGGSLRLSCAVSGRTFSSYVMGWFRQAPGKERDFVAAISRSGGRTWYADSVKGRFTISFDNAKNTVYLQMNSLKPEDTASYYCNTDYTFAKLTAPDRRNDDWGQGTQVTVSS"
3.35 OD450,3.36 OD450,3.39 OD450,3.31 OD450,0.04 OD450,0.04 OD450,0.06 OD450,0.35 OD450,"504#SS29 (Fc fusion, not shown: a dimerising Fc or GST; small tags and cut ends, VHH-FC construct from HEK293 cells) VHH: QVQLVESGGGLVQAGGSLRLSCAASGRTFSGYTMGWFRRAPGKERELIANILWNSARRYYADSVKGRFTISRDNAMNTVDLQMNSLKPEDTAVYYCAVLVDSTYRFSNQGTQVTVSS"
